# Results from publication PMC7031059.
# Biological target: PpTCP20-GST (Prunus persica var. nectarina cv. …, UniProt A0A251Q833 1-310)
# Experiment: EMSA
row,Binder,binding result
1,6T (PpDAM6 promoter site-II) (dsDNA) DNA 1: GGTGGGCCCAATCAAGTGACATGACAGCGA DNA 2: TCGCTGTCATGTCACTTGATTGGGCCCACC,binds
2,6mT (GGGCCC to AAATTT) (dsDNA) DNA 1: GGTAAATTTAATCAAGTGACATGACAGCGA DNA 2: TCGCTGTCATGTCACTTGATTAAATTTACC,no binding
3,5T2 (dsDNA) DNA 1: CATGTGTCATGGTGGGCTCAATCAAGTGGC DNA 2: GCCACTTGATTGAGCCCACCATGACACATG,binds
4,5mT2 (GGG to TTT) (dsDNA) DNA 1: CATGTGTCATGGTTTTCTCAATCAAGTGGC DNA 2: GCCACTTGATTGAGAAAACCATGACACATG,no binding
5,ABF2-F (PpABF2 promoter TBS) (dsDNA) DNA 1: ACCTAACCTAAGTGGGACCATGCCCTTTTT DNA 2: AAAAAGGGCATGGTCCCACTTAGGTTAGGT,binds
